# Source: patent US20260098095A1 (Hoffmann-La Roche, published 2026)
# Changes are numbered by the printed parent chain.
# B1: Molecule U (bispecific antibody, V domains shown)
# VH 1: QVQLQQSGGEVMKPGASVKLSCKATGYTFTGYWIEWIKQRPGHGLEWIGEILPGSGGTNYNEKFKGKATFTAHTSSNTAYMQLSSLTTEDSAIYYCARDSNSFTYWGQGTLVTVSS
# VL 1: QIVLTQSPAIMSASPGEKVTITCSVSSSVDYIHWFQQKPGTSPKFWIYSTSILASGVPARFSGSGSGTSYSLTISRMEAEDAATYYCQQRSSYPPTFGSGTKLEIK
# VH 2: EVQLVESGGGLVQPGGSLRLSCAASGYSFTGYTMNWVRQAPGKGLEWVALINPYKGVSTYNQKFKDRFTISVDKSKNTAYLQMNSLRAEDTAVYYCARSGYYGDSDWYFDVWGQGTLVTVSS
# VL 2: DIQMTQSPSSLSASVGDRVTITCRASQDIRNYLNWYQQKPGKAPKLLIYYTSRLESGVPSRFSGSGSGTDYTLTISSLQPEDFATYYCQQGNTLPWTFGQGTKVEIK
# B2: Molecule N (antibody, V domains shown)
# VH: B1 VH 1
# VL: B1 VL 1
# B3: Molecule C (bispecific antibody, V domains shown)
# VH 1: TQQLVESGGGLVQPGGSLRLSCAASGFSFSFDTMSWVRQAPGKGLEWVGSISPSGGSTYYNDNVLGRFTISRDNSKNTLYLQMNSLRAEDTAVYYCARDHGYFDMWGQGTLVTVSS
# VL 1: DIQMTQSPSSLSASVGDRVTITCRASQSISSYLAWYQQKPGKAPKLLIYDASWLELGVPSRFSGSGSGTDFTLTISSLQPEDFATYYCQQYSSYPYTFGQGTKLEIK
# VH 2: not shown
# VL 2: QAVVTQEPSLTVSPGGTVTLTCGSSTGAVTTSNYANWVQEKPGQAFRGLIGGTNKRAPGTPARFSGSLLGGKAALTLSGAQPEDEAEYYCALWYSNLWVFGGGTKLTVL
# B4: Molecule H (antibody, V domains shown)
# VH: YVQLVESGGGLVKPGGSLRLSCAAPLPFTGLDMSWVRQAPGKGLEWVGSISPKGGSTYYNDNVLGRFTISRDNSKNTLYLQMNSLRAEDTAVYYCARDWGFFDLWGQGTLVTVSS
# VL: B3 VL 1 with D1A, S31N, S52N, W53A, L54H, L56N, G57D, Y94H
# notes: also called 007A09 IgG antibody
# B5: Molecule J (antibody, V domains shown)
# VH: B3 VH 1
# VL: B3 VL 1
# notes: also called 057B04 IgG antibody
# B6: Molecule K (antibody, V domains shown)
# VH: AQLVESGGGLVQPGGSLRLSCAASAYFSFKAMSWVRQAPGKGLEWVGSISPSGGSTYYNDNVLGRFTISRDNSKNTLYLQMNSLRAEDTAVYYCAKDVGFFDEWGQGTLVTVSS
# VL: B3 VL 1 with W53I, L54R, E55D, L56I
# notes: also called 057D03 IgG antibody
# B7: Molecule I (antibody, V domains shown)
# VH: B4 VH with V2P, P25R, L26Y, G30R, L104N
# VL: B3 VL 1 with D1A, S31N, D50N, W53H, L54P, L56Y, G57D, Y94H
# notes: also called 007D10 IgG antibody
# B8: Molecule L (antibody, V domains shown)
# VH: not shown
# VL: SSELTQDPAVSVALGQTVRITCQGDSLRSYYASWYQQKPGQAPVLVIYGKNNRPSGIPDRFSGSSSGNTASLTITGAQAEDEADYYCNSRQSSYYHHIVFGGGTKLTVL
# notes: also called 032G09 IgG antibody
# B9: Molecule M (antibody, V domains shown)
# VH: not shown
# VL: B8 VL with G67S, Q91M, Y94R, I98D
# notes: also called 034F05 IgG antibody
# Legend:
# [1] = target: T1, HLA-A2/MAGE-A4 peptide MHC (pMHC) complex on cells (human); assay: cell-based or functional assay
# [2] = target: T1, HLA-A2/MAGE-A4 peptide MHC (pMHC) …; assay: cell-based or functional assay; remark: listed apart in the source
# [3] = target: T1, HLA-A2/MAGE-A4 peptide MHC (pMHC) …; assay: cell-based or functional assay; remark: listed apart in the source
# [4] = target: G5A (human); assay: cell-based or functional assay
# [5] = target: T9A (human); assay: cell-based or functional assay
# [6] = target: E7A (human); assay: cell-based or functional assay
# [7] = target: G1A (human); assay: cell-based or functional assay
# [8] = target: V10A (human); assay: cell-based or functional assay
# [9] = target: Y3A (human); assay: cell-based or functional assay
# [10] = target: T1, HLA-A2/MAGE-A4 peptide MHC (pMHC) …; assay: cell-based or functional assay; remark: listed apart in the source
# [11] = target: V2A (human); assay: cell-based or functional assay
# [12] = target: R6A (human); assay: cell-based or functional assay
# [13] = target: D4A (human); assay: cell-based or functional assay
# [14] = target: H8A (human); assay: cell-based or functional assay
# [15] = target: T1, HLA-A2/MAGE-A4 peptide MHC (pMHC) …; assay: cell-based or functional assay; remark: listed apart in the source
# [16] = target: EDC3 (human); assay: cell-based or functional assay
# [17] = target: gutQ (human); assay: cell-based or functional assay
# [18] = target: PIGG (human); assay: cell-based or functional assay
# [19] = target: DPYSL3 (human); assay: cell-based or functional assay
# [20] = target: DYNC1H1 (human); assay: cell-based or functional assay
# [21] = target: SLC45A1 (human); assay: cell-based or functional assay
# [22] = target: FBXO34 (human); assay: cell-based or functional assay
# [23] = target: BNRF1 (human); assay: cell-based or functional assay
# [24] = target: VPS13D (human); assay: cell-based or functional assay
# [25] = target: CCS (human); assay: cell-based or functional assay
# [26] = target: KDM1A (human); assay: cell-based or functional assay
# [27] = target: DPYSL4 (human); assay: cell-based or functional assay
# [28] = target: CRMP1 (human); assay: cell-based or functional assay
# [29] = target: PKP1 (human); assay: cell-based or functional assay
# [30] = target: MAGEB2 (human); assay: cell-based or functional assay
# [31] = target: ARF3 (human); assay: cell-based or functional assay
# [32] = target: UNC80 (human); assay: cell-based or functional assay
# [33] = target: UBE2V2 (human); assay: cell-based or functional assay
# [34] = target: ARF1 (human); assay: cell-based or functional assay
# [35] = target: MTOR (human); assay: cell-based or functional assay
# [36] = target: KEAP1 (human); assay: cell-based or functional assay
# [37] = target: pfkA (human); assay: cell-based or functional assay
# [38] = target: URB1 (human); assay: cell-based or functional assay
# [39] = target: GAPDHS (human); assay: cell-based or functional assay
# [40] = target: T1, HLA-A2/MAGE-A4 peptide MHC (pMHC) …; assay: cell-based or functional assay; remark: listed apart in the source
# [41] = target: T2, HLA-A2/MAGE-A4p230-239 complex (human); assay: SPR Biacore T200, antibody captured by anti-human Fc, pMHC complex as analyte, 25 C, 1:1 Langmuir fit
# T2 construct: also called HLA-A2/MAGEp230-239
# Method: The dissociation phase was monitored for 240 s and triggered by switching from the sample solution to HBS-EP+. The chip surface was regenerated after every cycle using an injection of 3M MgCl₂ at 10 μl/min for 30 sec. Bulk refractive index differences were corrected for by subtracting the response obtained on the reference flow cell which contains the anti-human Fc antibody, but without HLA-A2/MAGE-A4 antibody captured on it. The affinity constants were derived from the kinetic rate constants by fitting to a 1:1 Langmuir binding using the BIAeval software (GE Healthcare). The measurement was performed in triplicate with independent dilution series.
binder,measurement,setting,value
B1,"EC50 (nM), T-cell mediated lysis of A375 cells, 48 h",[1],1.96 nM
same,"EC50 (nM), T-cell mediated lysis of NCI-H2023 cells, 48 h",[1],1.12 nM
same,"EC50 (nM), T-cell mediated lysis of UMUC-3 cells, 48 h",[1],0.45 nM
B2,"EC50 (pM), activation of PGLALA-CAR-J cells in presence of MAGE-A4 peptide pulsed T2 cells",[2],19.2 pM
B3,"EC50 [pM] 24 h, T-cell mediated lysis of MAGE-A4 peptide pulsed T2 cells",[3],121 pM
same,"EC50, Jurkat-NFAT activation",[4],16.8 nM
same,"EC50, Jurkat-NFAT activation",[5],670 pM
same,"EC50, Jurkat-NFAT activation",[6],1220 pM
same,"EC50, Jurkat-NFAT activation",[7],1440 pM
same,"EC50, Jurkat-NFAT activation",[8],13 nM
same,"EC50, Jurkat-NFAT activation",[9],626 pM
same,"EC50, Jurkat-NFAT activation",[10],1030 pM
same,"EC50, Jurkat-NFAT activation",[11],687 pM
same,"EC50, Jurkat-NFAT activation",[12],4.34 nM
same,"EC50, Jurkat-NFAT activation",[13],738 pM
same,"EC50, Jurkat-NFAT activation",[14],3.94 nM
same,"EC50 [pM], T-cell mediated lysis of IM-9 cells, 24 h",[15],2740 pM
same,"EC50 [pM], T-cell mediated lysis of NCI-H1755 cells, 24 h",[15],460 pM
same,"% of MAGE-A4 signal, Jurkat-NFAT",[16],0.48%
same,"% of MAGE-A4 signal, Jurkat-NFAT",[17],0.36%
same,"% of MAGE-A4 signal, Jurkat-NFAT",[18],0.33%
same,"% of MAGE-A4 signal, Jurkat-NFAT",[19],0.35%
same,"% of MAGE-A4 signal, Jurkat-NFAT",[20],0.17%
same,"% of MAGE-A4 signal, Jurkat-NFAT",[21],0.22%
same,"% of MAGE-A4 signal, Jurkat-NFAT",[22],0.39%
same,"% of MAGE-A4 signal, Jurkat-NFAT",[23],0.36%
same,"% of MAGE-A4 signal, Jurkat-NFAT",[24],0.39%
same,"% of MAGE-A4 signal, Jurkat-NFAT",[25],0.29%
same,"% of MAGE-A4 signal, Jurkat-NFAT",[26],0.24%
same,"% of MAGE-A4 signal, Jurkat-NFAT",[27],0.27%
same,"% of MAGE-A4 signal, Jurkat-NFAT",[28],0.29%
same,"% of MAGE-A4 signal, Jurkat-NFAT",[29],0.49%
same,"% of MAGE-A4 signal, Jurkat-NFAT",[30],0.34%
same,"% of MAGE-A4 signal, Jurkat-NFAT",[31],0.49%
same,"% of MAGE-A4 signal, Jurkat-NFAT",[32],0.43%
same,"% of MAGE-A4 signal, Jurkat-NFAT",[33],0.52%
same,"% of MAGE-A4 signal, Jurkat-NFAT",[34],0.23%
same,"% of MAGE-A4 signal, Jurkat-NFAT",[35],0.26%
same,"% of MAGE-A4 signal, Jurkat-NFAT",[36],0.51%
same,"% of MAGE-A4 signal, Jurkat-NFAT",[37],0.4%
same,"% of MAGE-A4 signal, Jurkat-NFAT",[38],0.45%
same,"% of MAGE-A4 signal, Jurkat-NFAT",[39],0.37%
same,"EC50 [pM], activation of Jurkat-NFAT reporter cells (luminescence, 6 h) with MAGE-A4 peptide pulsed T2 cells",[40],976 pM
B4,"EC50 (pM), activation of PGLALA-CAR-J cells in presence of MAGE-A4 peptide pulsed T2 cells",[2],8.6 pM
same,Kd,[41],17.3 nM
same,koff,[41],0.00426 s⁻¹
same,kon,[41],247000 M⁻¹ s⁻¹
B5,"EC50 (pM), activation of PGLALA-CAR-J cells in presence of MAGE-A4 peptide pulsed T2 cells",[2],208 pM
same,Kd,[41],40.7 nM
same,koff,[41],0.043 s⁻¹
same,kon,[41],1.06e+06 M⁻¹ s⁻¹
B6,"EC50 (pM), activation of PGLALA-CAR-J cells in presence of MAGE-A4 peptide pulsed T2 cells",[2],18.2 pM
same,Kd,[41],15.7 nM
same,koff,[41],0.0408 s⁻¹
same,kon,[41],2.6e+06 M⁻¹ s⁻¹
B7,"EC50 (pM), activation of PGLALA-CAR-J cells in presence of MAGE-A4 peptide pulsed T2 cells",[2],182 pM
same,Kd,[41],96.4 nM
same,koff,[41],0.00246 s⁻¹
same,kon,[41],25500 M⁻¹ s⁻¹
B8,"EC50 (pM), activation of PGLALA-CAR-J cells in presence of MAGE-A4 peptide pulsed T2 cells",[2],83.7 pM
same,Kd,[41],25.1 nM
same,koff,[41],0.003 s⁻¹
same,kon,[41],120000 M⁻¹ s⁻¹
B9,"EC50 (pM), activation of PGLALA-CAR-J cells in presence of MAGE-A4 peptide pulsed T2 cells",[2],19.2 pM
same,Kd,[41],2.47 nM
same,koff,[41],0.00111 s⁻¹
same,kon,[41],450000 M⁻¹ s⁻¹
